Laboratory results reported in paper PMC9482650, “Quantitative fragmentomics allow affinity mapping of interactomes” (Nature Communications, 2022).

Assays:
Experiment in all cases: holdup assay
Parameters in all cases: key: below the threshold = too weak to quantify, mostly under pKd 3.1 to 4
APBA2_1, Q99767 = target: T1, APBA2_1, Q99767
T1 sequence (Q99767 563-664, limits assumed, looked up): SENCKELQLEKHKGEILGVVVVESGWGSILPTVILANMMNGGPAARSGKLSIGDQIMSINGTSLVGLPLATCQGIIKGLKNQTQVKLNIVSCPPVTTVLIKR

APBA2_2, Q99767 = target: T2, APBA2_2, Q99767
T2 sequence (Q99767 654-744, limits assumed, looked up): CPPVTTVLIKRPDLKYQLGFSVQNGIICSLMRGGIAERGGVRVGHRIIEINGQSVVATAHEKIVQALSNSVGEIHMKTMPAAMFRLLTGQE

ARHGEF11, O15085 = target: T3, ARHGEF11, O15085
T3 sequence (O15085 42-136, limits assumed, looked up): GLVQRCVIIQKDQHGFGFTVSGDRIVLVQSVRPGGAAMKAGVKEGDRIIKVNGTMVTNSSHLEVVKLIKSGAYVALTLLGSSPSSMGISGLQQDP

CASK, O14936 = target: CASK, O14936
Chain of CASK, O14936 (O14936 487-570): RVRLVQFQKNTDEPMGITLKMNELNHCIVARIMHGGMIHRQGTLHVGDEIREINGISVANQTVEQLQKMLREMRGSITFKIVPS

DFNB31_1, Q9P202 = target: T4, DFNB31_1, Q9P202
T4 sequence (Q9P202 135-233, limits assumed, looked up): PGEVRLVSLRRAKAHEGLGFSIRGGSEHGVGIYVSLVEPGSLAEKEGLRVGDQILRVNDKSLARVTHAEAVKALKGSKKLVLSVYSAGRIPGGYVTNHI

DLG1_3, Q12959 = target: DLG1_3, Q12959
Chain of DLG1_3, Q12959 (Q12959 457-571): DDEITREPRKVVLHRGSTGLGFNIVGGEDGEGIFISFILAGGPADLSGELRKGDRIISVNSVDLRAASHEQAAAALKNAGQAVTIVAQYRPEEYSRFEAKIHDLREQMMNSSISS

DLG3_3, Q92796 = target: T5, DLG3_3, Q92796
T5 sequence (Q92796 374-475, limits assumed, looked up): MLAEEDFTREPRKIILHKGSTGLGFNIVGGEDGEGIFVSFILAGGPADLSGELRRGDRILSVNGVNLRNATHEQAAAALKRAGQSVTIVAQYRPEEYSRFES

DLG4_1, P78352 = target: DLG4_1, P78352
Chain of DLG4_1, P78352 (P78352 62-152): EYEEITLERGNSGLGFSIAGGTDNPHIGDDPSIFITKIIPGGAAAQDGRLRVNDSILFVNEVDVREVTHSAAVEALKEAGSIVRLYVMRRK

GIPC2, Q8TF65 = target: GIPC2, Q8TF65
Chain of GIPC2, Q8TF65 (Q8TF65 112-203): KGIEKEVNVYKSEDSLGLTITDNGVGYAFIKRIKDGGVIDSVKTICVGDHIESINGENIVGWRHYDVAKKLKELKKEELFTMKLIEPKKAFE

GORASP2, Q9H8Y8 = target: GORASP2, Q9H8Y8
GRID2IP_1, A4D2P6 = target: GRID2IP_1, A4D2P6
Chain of GRID2IP_1, A4D2P6 (A4D2P6 1-87): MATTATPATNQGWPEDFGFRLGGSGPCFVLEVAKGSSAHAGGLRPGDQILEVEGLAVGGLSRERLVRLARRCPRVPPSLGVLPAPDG

GRIP1_2, Q9Y3R0 = target: T6, GRIP1_2, Q9Y3R0
T6 sequence (Q9Y3R0 145-248, limits assumed, looked up): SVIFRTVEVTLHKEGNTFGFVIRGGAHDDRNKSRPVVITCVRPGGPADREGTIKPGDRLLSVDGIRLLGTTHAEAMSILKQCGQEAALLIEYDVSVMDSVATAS

GRIP1_3, Q9Y3R0 = target: T7, GRIP1_3, Q9Y3R0
T7 sequence (Q9Y3R0 247-346, limits assumed, looked up): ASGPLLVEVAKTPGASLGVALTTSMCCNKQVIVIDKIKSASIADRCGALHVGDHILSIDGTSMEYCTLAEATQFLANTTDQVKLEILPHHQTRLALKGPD

GRIP1_7, Q9Y3R0 = target: T8, GRIP1_7, Q9Y3R0
T8 sequence (Q9Y3R0 999-1096, limits assumed, looked up): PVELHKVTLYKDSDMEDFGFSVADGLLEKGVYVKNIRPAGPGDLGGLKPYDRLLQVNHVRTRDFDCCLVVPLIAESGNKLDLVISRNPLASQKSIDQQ

IL16_4, Q14005 = target: IL16_4, Q14005
Chain of IL16_4, Q14005 (Q14005 1229-1329): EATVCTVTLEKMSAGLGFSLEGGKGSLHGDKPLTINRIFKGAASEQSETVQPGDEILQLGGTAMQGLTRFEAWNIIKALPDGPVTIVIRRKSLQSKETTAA

LNX1_3, Q8TBB1 = target: LNX1_3, Q8TBB1
Chain of LNX1_3, Q8TBB1 (Q8TBB1 500-596): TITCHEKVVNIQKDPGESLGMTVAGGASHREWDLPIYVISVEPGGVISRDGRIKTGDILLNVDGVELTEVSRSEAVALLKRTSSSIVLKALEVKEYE

LNX2_3, Q8N448 = target: T9, LNX2_3, Q8N448
T9 sequence (Q8N448 463-564, limits assumed, looked up): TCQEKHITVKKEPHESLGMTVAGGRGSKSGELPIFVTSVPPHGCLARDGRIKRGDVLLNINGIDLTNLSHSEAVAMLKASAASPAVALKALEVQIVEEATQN

MAST2, Q6P0Q8 = target: MAST2, Q6P0Q8
Chain of MAST2, Q6P0Q8 (Q6P0Q8 1099-1202): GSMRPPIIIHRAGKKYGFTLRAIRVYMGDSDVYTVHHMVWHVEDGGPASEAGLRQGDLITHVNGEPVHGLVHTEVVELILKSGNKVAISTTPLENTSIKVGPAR

MPP2, Q14168 = target: T10, MPP2, Q14168
T10 sequence (Q14168 180-250, limits assumed, looked up): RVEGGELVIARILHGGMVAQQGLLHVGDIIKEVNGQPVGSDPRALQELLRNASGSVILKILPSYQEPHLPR

MPP6, Q9NZW5 = target: T11, MPP6, Q9NZW5
T11 sequence (Q9NZW5 125-219, limits assumed, looked up): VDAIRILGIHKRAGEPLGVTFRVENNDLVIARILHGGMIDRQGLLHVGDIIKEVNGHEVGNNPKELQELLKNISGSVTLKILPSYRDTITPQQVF

NHERF3_4, Q5T2W1 = target: T12, NHERF3_4, Q5T2W1
T12 sequence (Q5T2W1 373-468, limits assumed, looked up): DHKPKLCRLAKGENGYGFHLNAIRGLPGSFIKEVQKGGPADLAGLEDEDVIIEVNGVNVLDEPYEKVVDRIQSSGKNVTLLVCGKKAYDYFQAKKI

NOS1, P29475 = target: NOS1, P29475
Chain of NOS1, P29475 (P29475 9-101): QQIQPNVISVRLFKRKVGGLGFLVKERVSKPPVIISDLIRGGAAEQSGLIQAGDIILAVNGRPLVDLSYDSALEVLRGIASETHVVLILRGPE

SNTB1, Q13884 = target: T13, SNTB1, Q13884
T13 sequence (Q13884 107-205, limits assumed, looked up): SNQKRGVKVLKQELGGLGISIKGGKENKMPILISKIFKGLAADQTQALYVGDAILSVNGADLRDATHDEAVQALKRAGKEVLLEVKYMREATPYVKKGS

TJP1_3, Q07157 = target: TJP1_3, Q07157
Chain of TJP1_3, Q07157 (Q07157 416-512): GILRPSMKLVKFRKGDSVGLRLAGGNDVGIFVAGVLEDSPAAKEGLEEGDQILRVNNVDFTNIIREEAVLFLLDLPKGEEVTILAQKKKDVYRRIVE

[1] = plain residues with an end cap or a label only (N-terminal biotin on a linker: (peg)3)
[2] = plain residues with an end cap or a label only (N-terminal biotin on a linker: ado-ado)
[3] = plain residues with an end cap or a label only (N-terminal biotin on a linker: ahx)

## RYEDTTLVEDTVL [WNV-NS5, Q9Q6P4]
APBA2_1, Q99767; [1]
  pKd: below the threshold
APBA2_2, Q99767; [1]
  pKd: below the threshold
ARHGEF11, O15085; [1]
  pKd: 3.99
CASK, O14936; [1]
  pKd: below the threshold
DFNB31_1, Q9P202; [1]
  pKd: 3.83
DLG1_3, Q12959; [1]
  pKd: 3.51
DLG3_3, Q92796; [1]
  pKd: below the threshold
DLG4_1, P78352; [1]
  pKd: below the threshold
GIPC2, Q8TF65; [1]
  pKd: below the threshold
GORASP2, Q9H8Y8; [1]
  pKd: below the threshold
GRID2IP_1, A4D2P6; [1]
  pKd: below the threshold
GRIP1_2, Q9Y3R0; [1]
  pKd: below the threshold
GRIP1_3, Q9Y3R0; [1]
  pKd: below the threshold
GRIP1_7, Q9Y3R0; [1]
  pKd: below the threshold
IL16_4, Q14005; [1]
  pKd: 3.56
LNX1_3, Q8TBB1; [1]
  pKd: below the threshold
LNX2_3, Q8N448; [1]
  pKd: below the threshold
MAST2, Q6P0Q8; [1]
  pKd: 5.64
MPP2, Q14168; [1]
  pKd: below the threshold
MPP6, Q9NZW5; [1]
  pKd: below the threshold
NHERF3_4, Q5T2W1; [1]
  pKd: 3.96
NOS1, P29475; [1]
  pKd: 3.64
SNTB1, Q13884; [1]
  pKd: 4.27
TJP1_3, Q07157; [1]
  pKd: below the threshold

## DPAESMESLV [PTPRG, P23470]
APBA2_1, Q99767; [2]
  pKd: below the threshold
APBA2_2, Q99767; [2]
  pKd: below the threshold
ARHGEF11, O15085; [2]
  pKd: 3.61
CASK, O14936; [2]
  pKd: below the threshold
DFNB31_1, Q9P202; [2]
  pKd: below the threshold
DLG1_3, Q12959; [2]
  pKd: below the threshold
DLG3_3, Q92796; [2]
  pKd: below the threshold
DLG4_1, P78352; [2]
  pKd: 4.59
GIPC2, Q8TF65; [2]
  pKd: 3.95
GORASP2, Q9H8Y8; [2]
  pKd: below the threshold
GRID2IP_1, A4D2P6; [2]
  pKd: below the threshold
GRIP1_2, Q9Y3R0; [2]
  pKd: below the threshold
GRIP1_3, Q9Y3R0; [2]
  pKd: below the threshold
GRIP1_7, Q9Y3R0; [2]
  pKd: below the threshold
IL16_4, Q14005; [2]
  pKd: below the threshold
LNX1_3, Q8TBB1; [2]
  pKd: below the threshold
LNX2_3, Q8N448; [2]
  pKd: below the threshold
MAST2, Q6P0Q8; [2]
  pKd: 4.69
MPP2, Q14168; [2]
  pKd: below the threshold
MPP6, Q9NZW5; [2]
  pKd: below the threshold
NHERF3_4, Q5T2W1; [2]
  pKd: below the threshold
NOS1, P29475; [2]
  pKd: 3.74
SNTB1, Q13884; [2]
  pKd: 4.84
TJP1_3, Q07157; [2]
  pKd: below the threshold

## QPRTWLQSPV [RTKN, Q9BST9]
APBA2_1, Q99767; [3]
  pKd: below the threshold
APBA2_2, Q99767; [3]
  pKd: below the threshold
ARHGEF11, O15085; [3]
  pKd: below the threshold
CASK, O14936; [3]
  pKd: below the threshold
DFNB31_1, Q9P202; [3]
  pKd: 4.35
DLG1_3, Q12959; [3]
  pKd: 4.11
DLG3_3, Q92796; [3]
  pKd: 4.41
DLG4_1, P78352; [3]
  pKd: 4.19
GIPC2, Q8TF65; [3]
  pKd: below the threshold
GORASP2, Q9H8Y8; [3]
  pKd: below the threshold
GRID2IP_1, A4D2P6; [3]
  pKd: below the threshold
GRIP1_2, Q9Y3R0; [3]
  pKd: below the threshold
GRIP1_3, Q9Y3R0; [3]
  pKd: below the threshold
GRIP1_7, Q9Y3R0; [3]
  pKd: below the threshold
IL16_4, Q14005; [3]
  pKd: below the threshold
LNX1_3, Q8TBB1; [3]
  pKd: below the threshold
LNX2_3, Q8N448; [3]
  pKd: below the threshold
MAST2, Q6P0Q8; [3]
  pKd: 4.13
MPP2, Q14168; [3]
  pKd: below the threshold
MPP6, Q9NZW5; [3]
  pKd: below the threshold
NHERF3_4, Q5T2W1; [3]
  pKd: below the threshold
NOS1, P29475; [3]
  pKd: 3.6
SNTB1, Q13884; [3]
  pKd: below the threshold
TJP1_3, Q07157; [3]
  pKd: below the threshold
